Kd and Ki data for 8 molecules are collected here from publication PMC5350102, “Efficient Binding of the NOS1AP C-Terminus to the nNOS PDZ Pocket Requires the Concerted Action of the PDZ Ligand Motif, the Internal ExF Site and Structural Integrity of an Independent Element” (Frontiers in Molecular Neuroscience, 2017).

Several values for one entry are separate records, joined by “and”; a condition that tells them apart may be missing. Equal entries are not always repeated. Where no end group is shown, it is not given here. fluorescein = fluorescein label at the peptide N-terminus Where only a bound is given, the exact number is not on record here.

Conditions in all cases: both partners purified
One experiment addresses T1, GST-nNOS[1–155] (human, UniProt P29475-1 1-155).
T1 construct: also called GST-fused nNOS protein
In words: pull-down; solid-phase no-wash binding assay: 5 μl beads bound to 1 μg GST-fused nNOS protein (or GST for background) rotated with His-TAT-NOS1AP peptides for 1 h at 4°C; unbound removed by centrifugation in filter plates, no wash; bound peptide quantified by fluorescent immunoblot; GST background subtracted; 1-site quadratic fit. For orientation: In western blotting, separated proteins are transferred to a membrane and probed.

Experiment [1] addresses T2, His-nNOS[1–155] (human, UniProt P29475-1 1-155).
T2 construct: Two batches were used
Description: fluorescence polarisation; competition FP: 1 μM F-GDLV, 4 μM His-nNOS(1–155), increasing competitor; approximate Kc (dissociation constant of the competitor, affinity for the nNOS PDZ pocket) from the single-site competition formula.

Experiment [2] has as its target T2, His-nNOS[1–155]. In words: fluorescence polarisation; increasing His-nNOS(1–155) added to 1 μM F-GDLV in 50 mM Tris pH 7.4, 100 mM NaCl, 1 mM EDTA, 0.1% BSA; one-site quadratic fit; triplicates from each of two nNOS batches.
Experiment [3] concerns the target T2, His-nNOS[1–155]. Described as above. The source holds these as a separate data set.

B1: His-TAT-NOS1AP[400–506], denatured (domain or fragment, human, UniProt O75052 400-506, looked up)
chain: HSPPLGAGLADFAHPAGSPLGRRDCLVKLECFRFLPPEDTPPPAQGEALLGGLELIKFRESGIASEYESNTDESEERDSWSQEELPRLLNVLQRQELGDGLDDEIAV
notes: Same construct as m10, but prepared under denaturing conditions
B1 gave a Kd with GST-nNOS[1–155] of 2.4 µM.

B2: NOS1AP[400–506] F431A cleaved from GST (domain or fragment, human, UniProt O75052 400-506, looked up)
chain: HSPPLGAGLADFAHPAGSPLGRRDCLVKLECARFLPPEDTPPPAQGEALLGGLELIKFRESGIASEYESNTDESEERDSWSQEELPRLLNVLQRQELGDGLDDEIAV
B2 came in with a Ki with His-nNOS[1–155] [1] of more than 10 µM.

B3: F-GDLV (fluorescein-RRRRWGDLV) (peptide)
peptide: fluorescein-RRRRWGDLV
notes: also called F-GLDV; source: synthetic peptide, bought: Genic Bio (Shanghai, China)
On to B3, for which the Kd in the experiment with His-nNOS[1–155] [2] was 10.2 µM and 11.2 µM; in the experiment with His-nNOS[1–155] [3], 10.7 µM.

B4: Peptide EIAV (NH2-DSLDDEIAV-COOH) (peptide)
peptide: H-DSLDDEIAV-OH
notes: last 9 amino acids of rat/mouse NOS1AP; also called NOS1AP-9C; DSLDDEIAV (NOS1AP-9C); source: synthetic peptide, synthesized by Xigen AG (Lausanne, Switzerland)
As for B4, the Ki with His-nNOS[1–155] [1] is more than 300 µM.

B5: Peptide GDLV (NH2-RRRRWGDLV-COOH) (peptide)
peptide: H-RRRRWGDLV-OH
notes: also called unlabelled GDLV; source: synthetic peptide, bought: Genic Bio (Shanghai, China)
Molecule B5 gave a Ki with His-nNOS[1–155] [1] of 10.7 µM.

B6: NOS1AP[432–506] cleaved from GST (domain or fragment, human, UniProt O75052 432-506, looked up)
chain: RFLPPEDTPPPAQGEALLGGLELIKFRESGIASEYESNTDESEERDSWSQEELPRLLNVLQRQELGDGLDDEIAV
As for B6, in the experiment with His-nNOS[1–155] [1], the Ki is more than 10 µM.

B7: His-TAT-NOS1AP[400–503], denatured (domain or fragment, human, UniProt O75052 400-503, looked up)
chain: HSPPLGAGLADFAHPAGSPLGRRDCLVKLECFRFLPPEDTPPPAQGEALLGGLELIKFRESGIASEYESNTDESEERDSWSQEELPRLLNVLQRQELGDGLDDE
notes: also called denatured NOS1AP[400–503]; NOS1AP 400-503 His-TAT fusion, Denatured
In the case of B7, the Kd with GST-nNOS[1–155] was determined as 5.3 µM.

B8: His-TAT-NOS1AP[400–503] E429A, denatured (domain or fragment, human, UniProt O75052 400-503, looked up)
chain: HSPPLGAGLADFAHPAGSPLGRRDCLVKLACFRFLPPEDTPPPAQGEALLGGLELIKFRESGIASEYESNTDESEERDSWSQEELPRLLNVLQRQELGDGLDDE
notes: NOS1AP, human, residues 400-503 with E429A in the ExF motif
In turn, B8 had a Kd with GST-nNOS[1–155] of 99 µM.

By Kd is commonly meant the concentration at which binding is half-saturated. A lower Kd goes with tighter binding. Broadly, the Ki is the equilibrium dissociation constant of an inhibitor or competing ligand from its target. A higher Ki goes with lower affinity.
